Results reported in US20020058275A1, “Compositions, kits, and methods for effecting adenine nucleotide modulation of DNA mismatch recognition proteins” (Thomas Jefferson University, priority 1997, published 2002).

Target: T1, IVTT-hMSH4 (Homo sapiens, UniProt O15457)
T1 construct: made in house; host or cells: in vitro transcription/translation, TNT coupled reticulocyte lysate (Promega), insert in pCR 2.1
T1 sequence (O15457 1-936): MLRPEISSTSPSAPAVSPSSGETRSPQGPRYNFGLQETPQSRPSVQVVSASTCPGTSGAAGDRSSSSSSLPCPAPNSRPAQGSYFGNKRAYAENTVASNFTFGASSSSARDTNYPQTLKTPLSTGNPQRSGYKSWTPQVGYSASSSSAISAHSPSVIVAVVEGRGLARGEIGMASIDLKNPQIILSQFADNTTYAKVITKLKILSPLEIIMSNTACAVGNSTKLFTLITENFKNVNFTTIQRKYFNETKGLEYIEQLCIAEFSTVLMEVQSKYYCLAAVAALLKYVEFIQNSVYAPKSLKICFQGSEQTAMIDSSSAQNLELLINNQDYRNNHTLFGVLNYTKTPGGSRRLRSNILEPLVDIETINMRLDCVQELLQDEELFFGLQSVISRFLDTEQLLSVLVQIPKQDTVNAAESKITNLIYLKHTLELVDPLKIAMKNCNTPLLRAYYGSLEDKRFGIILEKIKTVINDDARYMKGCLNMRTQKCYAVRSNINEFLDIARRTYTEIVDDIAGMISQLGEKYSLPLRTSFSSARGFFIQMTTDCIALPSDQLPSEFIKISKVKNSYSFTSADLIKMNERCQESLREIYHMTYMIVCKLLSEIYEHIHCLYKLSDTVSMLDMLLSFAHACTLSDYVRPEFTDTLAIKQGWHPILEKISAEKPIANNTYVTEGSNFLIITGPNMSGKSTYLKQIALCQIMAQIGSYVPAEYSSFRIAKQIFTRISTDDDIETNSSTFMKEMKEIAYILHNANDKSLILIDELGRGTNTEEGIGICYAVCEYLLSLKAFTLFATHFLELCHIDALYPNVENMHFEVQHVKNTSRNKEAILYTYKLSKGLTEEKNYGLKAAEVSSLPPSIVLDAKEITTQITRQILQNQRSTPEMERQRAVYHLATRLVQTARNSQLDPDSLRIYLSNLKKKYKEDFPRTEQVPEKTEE
Test: GST fusion protein interaction assay
Format: binding
Conditions: GST fusion protein as bait
Method: 500 microliters taken from a 5 milliliter overnight starter culture of cells which expressed an hMSH2-, hMSH3-, hMSH5-, or hMSH6-pGEX-fusion protein with (or non-fused pGEX as a negative control) was inoculated into 50 milliliters of Luria broth which contained 50 micrograms per milliliter ampicillin, and this culture was grown until the optical density at 600 nanometers was about 0.5. Protein expression was induced by addition of 0.1 millimolar (final concentration) IPTG for 2 hours at 30° C. Cells were pelleted and resuspended in 750 microliters of phosphate buffered saline containing protease inhibitors. A 10 minute digestion on ice using 1 milligram per milliliter lysozyme was then performed. After the addition of 0.2% (v/v) Triton X-100 and 1 millimolar dithiothreitol (final concentrations), the lysate was snap-frozen in liquid nitrogen and thawed twice. DNaseI (200 units per milliliter; Boehringer Mannheim, Germany) digestion was performed using the thawed lysate for 30 minutes on ice, after which cell debris was removed by centrifugation at 14,000 rpm at 4° C. for 30 minutes in a benchtop microfuge. […]

B1: hMSH5: human MutS homolog, putative 834-amino-acid protein encoded by clone b29 (SEQ ID NO: 29) (protein)
chain: MASLGANPRRTPQGPRPGAASSGFPSPAPVPGPREAEEEEVEEEEELAEIHLCVLWNSGYLGIAYYDTSDSTIHFMPDAPDHESLKLLQRVLDEINPQSVVTSAKQDENMTRFLGKLASQEHREPKRPEIIFLPSVDFGLEISKQRLLSGNYSFIPDAMTATEKILFLSSIIPFDCLLTVRALGGLLKFLGRRRIGVELEDYNVSVPILGFKKFMLTHLVNIDQDTYSVLQIFKSESHPSVYKVASGLKEGLSLFGILNRCHCKWGEKLLRLWFTRPTHDLGELSSRLDVIQFFLLPQNLDMAQMLHRLLGHIKNVPLILKRMKLSHTKVSDWQVLYKTVYSALGLRDACRSLPQSIQLFRDIAQEFSDDLHHIASLIGKVVDFEGSLAENRFTVLPNIDPEIDEKKRRLMGLPSFLTEVARKELENLDSRIPSCSVIYIPLIGFLLSIPRLPSMVEASDFEINGLDFMFLSEEKLHYRSARTKELDALLGDLHCEIRDQETLLMYQLQCQVLARAAVLTRVLDLASRLDVLLALASAARDYGYSRPRYSPQVLGVRIQNGRHPLMELCARTFVPNSTECGGDKGRVKVITGPNSSGKSIYLKQVGLITFMALVGSFVPAEEAEIGAVDAIFTRIHSCESISLGLSTFMIDLNQVAKAVNNATAQSLVLIDEFGKGTNTVDGLALLAAVLRHWLARGPTCPHIFVATNFLSLVQLQLLPQGPLVQYLTMETCEDGNDLVFFYQVCEGVAKASHASHTAAQAGLPDKLVARGKEVSDLIRSGKPIKPVKDLLKKNQMENCQTLVDKFMKLDLEDPNLDLNVFMSQEVLPAATSIL
modifications: left off: a dimerising Fc or GST; large carriers; small tags and cut ends
B1 was tested, and the “interaction with IVTT-hMSH4” value was “significant interaction”.
